The values below come from patent US20220008464A1.

The assay has as its target TGFBR II (UniProt P37173). Briefly: cell-based or functional assay.

TGFBR II, sequence (P37173 23-567): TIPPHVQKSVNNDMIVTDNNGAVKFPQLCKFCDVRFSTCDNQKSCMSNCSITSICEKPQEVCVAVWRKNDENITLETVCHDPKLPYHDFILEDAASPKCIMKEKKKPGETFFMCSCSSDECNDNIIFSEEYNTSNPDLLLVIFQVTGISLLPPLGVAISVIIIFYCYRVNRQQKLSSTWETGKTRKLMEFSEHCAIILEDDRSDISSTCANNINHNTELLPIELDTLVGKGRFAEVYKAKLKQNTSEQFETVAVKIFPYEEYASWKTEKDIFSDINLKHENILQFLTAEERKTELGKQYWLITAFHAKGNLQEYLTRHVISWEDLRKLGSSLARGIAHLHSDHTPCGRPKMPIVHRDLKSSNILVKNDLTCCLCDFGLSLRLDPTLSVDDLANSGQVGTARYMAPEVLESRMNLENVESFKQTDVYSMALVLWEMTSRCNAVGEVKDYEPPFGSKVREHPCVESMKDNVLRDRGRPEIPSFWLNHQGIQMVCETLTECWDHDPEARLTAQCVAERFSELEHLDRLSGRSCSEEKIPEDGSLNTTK

Regarding “TGFβ1 (from UniProt P01137 279-390) (ligand)”, the decrease in release of IL-2 and IFN-γ by P4-CAR-T cells with 5 ng/ml TGFβ1 turned out to be 50%.
